The data set in a line: yeast display, Sf9 membrane polyspecificity reagent, FACS + sequencing; frameworks hold sequencing errors. The procedure, abridged: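 Sorting gates, low and high (top ~1%), were placed on anti-HA fluorescence to track expression and on streptavidin fluorescence to track reagent binding. A clone's polyreactivity label is taken from the gate it came out of. The reagent was 10% biotinylated, detergent-solubilized Sf9 membrane, applied for 1 hour at 4 °C to galactose-induced yeast display cells.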
With “QVQLVESGGGLVQAGGSLRLSFAASGSIFGFNAMGWYRPAPGKERELVAAISSGGITNYADSVKGRFTISRDNAKNTVYLQMNSLKAEDTAVYYCAARAVSEDYYEFDYWGQGTQVTVSS”, the “polyreactivity (PSR sort gate)” value is “low polyreactivity”.

Consider “QVQLVESGGGLVQAGGSLRLSCAASGRTLQGYAMGWYRQAPGKERELVAAISRGGGSTYADSVKGRFTISRDNAKNTVYLQMNSLKPEDTAVYYCAAVRGIYGGHYFRYEYWGQGTQVTVSS”, for which the “polyreactivity (PSR sort gate)” value is recorded as “high polyreactivity”.

“QVQLVESGGGLVQAGGSLRLSCAASGSTFHKYVMGWYRQAPGKEREFVAAISRRGTRTYYADSVKGRFTISRDNAKNTVYLQMNSLKPEDTAVYYCNVYYYRTYTHFLPGYEYWGQGTQVTVSS”: the “polyreactivity (PSR sort gate)” value is on record as “high polyreactivity”.

For “QVQLVESGGGLVQAGGSLRLSCAASGRILFYYGMGWYRQAPGKERELVAAISKRGGSTYYADSVKGRFTISRDNAKNTVYLQMNSLKPEDTAVYYCAAVQPAWGNGYWGQGTQVTVSS”, the “polyreactivity (PSR sort gate)” value was “high polyreactivity”.

As to “QVQLVESGGGFVQAGGSLRFSCAAYGSTFNQYAMGWYRQAPGKEREFVASITFSGGRTYYADSVQGRFTLSRDNEQNTVYLQMNSLKTEDPAVSYCNAVGYTPRKPSKFDYRGQGTQVTVSS”, the “polyreactivity (PSR sort gate)” value is “low polyreactivity”.

For “QVQLVESGGGLVQAGGTLRLSCAASGSIFGRNTMGWYRQAPGKERELVAAINSGGGTYYADSVKGRFTISRDNAKNTVYLQMNSLKPEDTAVYYCAKASRAVRHGDYWGQRTQVTVSS”, the “polyreactivity (PSR sort gate)” value is “low polyreactivity”.

Consider “QVQLVESGGGLVEAGGSLRLSCAASGIIFVSYDMGWYRQAPGKERELVAAINRGGRTYYADSVKGRFTISRDNAKNTVYLQMISLKPEDTAVYYCAAQFHFRPFSWTYDYWGQGTQVSVSS”, for which the “polyreactivity (PSR sort gate)” value is recorded as “high polyreactivity”.

Consider “QVQLVESGGGLVQAGGSLRLSCAASGITFRRYAMGWYRQAPGPEREFVATISGIGGNTYYADSVKGRFTISRANAKNPVYLQMNSLKPEDPAVYYCAADLWAGTYGEYDYWGQGPQVTVSS”, for which the “polyreactivity (PSR sort gate)” value was “high polyreactivity”.

As to “QVQLEESGGGLVQAGGSLRLICAASGIIFRLNAMGWYRQATGQDRELVAAIRRRGGSTYYADSVKGRFTISRDNAKNTVYLQMNSLKPEDTAVYYCNARYLRMRYPYTDEYNYWGQGTQVTVSS”, the “polyreactivity (PSR sort gate)” value is “low polyreactivity”.

Take “QVQLVESGGCLVQAGGSLRLSCAASGSTFSPYAMGWYRQAPGKERELVAGITGRGGRTYYADSVKGRFTISRDNAKNTVYLQMNSLKPEDTAVYYCAAKYYGNKRDLYYWGQGTQVTVSS”: the “polyreactivity (PSR sort gate)” value is “low polyreactivity”.

Consider “QVQLVESGGGLVQAGGSLRLSCAASGFIVGHYAMGWYRQAPGQEREFVAAITSGGTTYYADSVKGRFTISRDNAKNTVYLQMNSLKPEDTAVYYCNADDAFRYYWLGLYDYWGQGTQVTVSS”, for which the “polyreactivity (PSR sort gate)” value is “low polyreactivity”.

On to “QVQLVESGGGIVQAGGSLRLSCAASGNTFNFYAMGWYRQAPGKERELVASITSGGGTNYADSVKGRFTISRDNAKNTVYLQMNSLKPEDTAVYYCADQFYYHFRYHFDWGLGTQVTVSS”, for which the “polyreactivity (PSR sort gate)” value is reported as “low polyreactivity”.

Turning to “QVQLVESGVGLVQAGGSLRLSCADSGSIFVINAMGWYRQASGKERELVATIRARAGSTYYADSVKGRFTISRDNAKNTVYLQMNSLKPEDTAFYYCAARLKSYRVEYWGQGTQVTVSS”, the “polyreactivity (PSR sort gate)” value was “high polyreactivity”.

With “QVQLVESGGGLVQAGGSLRLSCAASGRIFVTYAMGWYRQAPGKERELVAAIPWDGDSTYYADSVKGRFTISRDNAKNTVYLQMNSLKPEDTAVYYCNAKKFNSHVELGYDYWGQGTQVTVSS”, the “polyreactivity (PSR sort gate)” value was “low polyreactivity”.

As for “QVQLVESGGGLVQAGGSLRLICAASGFTFRTYAMGWYRQAPGKERELVAAINYSGGSTYYADSVKGRFTISRDNAKNTVYLQMNSVKPEDTAVYYCNKQRDVQVYVRYPMNYWGQGTQVTVSS”, the “polyreactivity (PSR sort gate)” value was “low polyreactivity”.

Take “QVQLVESGGGLVQAGGSLRLSCAASGSIFSLYAMGWYRPAPGKERELVAAISDGTGTNYADSVKGRFTISRDNAKNTVYLQMNSLKPVDTAVYYCATETYWYLPYYGDVEGNYWGQGTQVTVSS”: the “polyreactivity (PSR sort gate)” value was “low polyreactivity”.

“QVQLVESGGGLVQAGGSHRLSCAATGNTFHTNAIGWYRQAPGKERELVAAITGGGSTYYADSVKGRFTISRDNAKNTVYLQMNSLKPEDTAVYYCNTDVPYGLDVSDTIDYYYWGQGTQVTVSS”: the “polyreactivity (PSR sort gate)” value is on record as “low polyreactivity”.

Turning to “QVQLEESGGGLVQAGGSLRLSCAASGFIFLDYAMGWYRQAPGKERELVAAISSRGARTYYADSVKGRFTISRDNAKNTVYLQMNSLKPEDTAVYYCAARGPLDRYGYWGQGTQVTVSS”, the “polyreactivity (PSR sort gate)” value is given as “high polyreactivity”.

As to “QVQLVESGGGLVQAGGSLRLSCVASGFIFRRNAMGWYRQAPGKERELVATISSGGNTYYADSVKGRFTISRDNAKNTVYLQMNSLKPVDTAVYYCIASDGLPSKLNVYVEFDYWGQCTQVTVSS”, the “polyreactivity (PSR sort gate)” value is “low polyreactivity”.

As to “QVQLVESGGGLVQAGGSLRLSCAASGSTFRIYAMGWYRQAPGKERELVAAITSGGDTNYADSVKGRFTISRDNAKNTVYLQMNSLKPEDTAVYYCAADGHSVYTELDYWGQGTQVTVSS”, the “polyreactivity (PSR sort gate)” value is recorded as “low polyreactivity”.

Regarding “QVQLVESGGGLVQAGGSLRLSCAASGSTFRYYAMGWYRQAPGKERELVAAISGSGGRTYYADSVKGRFTISRDNAKNTVYLQMYSLKPEDTAVYYCAASRYQFYWGQGTQVTVSS”, the “polyreactivity (PSR sort gate)” value is “high polyreactivity”.

For “QVQLVDSGGGLVQAGGSLRLSCAASGSTIKYYAMGWYRQEPGKERELVAAINWSGDSTYYADSVKGRFTISRDYAKITVYLQKISLKPEDTAVYYCAVRYQKRAYYGSNYWGQGTQVTVSS”, the “polyreactivity (PSR sort gate)” value was “high polyreactivity”.

“QVQLVESGGGLVQAGGSLRLSCAASGFTFNSYAMGWYRQAPGKERELVAAITSSGGLTYYADSVKGRFTISRDNAKNTVYLQKNSLKPEDTAVYYCAARPGGKVATIYDYWGQGTQVTVSS”: the “polyreactivity (PSR sort gate)” value is recorded as “low polyreactivity”.

As for “QVQLVESGGVLVQAGGSLRLSCAASGRTFYLYAMGWYRHAPGKERELVAAISWSDDTTYYADSVKGRFTISRDNAKNTVYLQRNSLKPEDTAVYYCAAEQEQVALYDYWGQGTQVTVSS”, the “polyreactivity (PSR sort gate)” value is “high polyreactivity”.

“QVQLVESGGGLVQAGGSLRLSCAASGFTFDPYAMGWYRQAPGKERELVAAIDYSGGTTYYADSVKGRFTISRDNAKNTVYLQMNSLKPEDTAVYYCAAEYTYYHWWGYDYWGQGTQVTVSS”: the “polyreactivity (PSR sort gate)” value is “high polyreactivity”.

On to “QVQRVESGGGLVQAGGRLRLSCAASGSTFLYNAMGWYRQAPGKERELVATISSGGGSTNYADSVKGRFTNSRDNAKNTVYLPMNSLKPEDTAVYYCAVEGYDSYKDDYWGQGTQVTVSS”, for which the “polyreactivity (PSR sort gate)” value is given as “low polyreactivity”.

Take “QVQLVESGGGLVQAGGSLRLSCAASGRTFRTNVMGGYIQAPGKERELVADISKRGGSTYYADSVKGRFTISRDNAMNTVYVQINSQKPDDTAVYYCAADYSPYYYHQGDYWGQGTQVTVSS”: the “polyreactivity (PSR sort gate)” value is given as “high polyreactivity”.

Regarding “QVQLVESGGGLVQAGGSLRLSCAASGRTFYYYAMGWYIPAPGKERELVARISYSGSNTYYADSVKGRFTISRDTAKNTVYLQMNSLKREVTAGYYCAAGYLVWRDSATLDYWGQGTQVTVSS”, the “polyreactivity (PSR sort gate)” value was “high polyreactivity”.

With “QVQLVESGGGLVQAGGSLRLSCASSGSIFNYNSMGGYRQAPGKERELVAGITTSGGSTYYADSVKGRFTISRDNAKNTVYLQMNSLKPEDTAVYYCAGYDYISSTYFLDDFWGQGSQVTVSS”, the “polyreactivity (PSR sort gate)” value is listed as “low polyreactivity”.

For “QVQLVESGGGLVQAGGSLRLSCAASGRIYWNTMGWYRPAPGKERELVASISTGGGRTYYADSVKGRFTISRDNAKNTVYLQMNSLKPEDTAVYYCAARRGAGYSRFNYWGQGTQVTVSS”, the “polyreactivity (PSR sort gate)” value is listed as “high polyreactivity”.

As to “QVQLVESGGGLLQAGGSLRLSCAASGRIGRYAMGCYRQAPGKERQLVAVITSGDSTYYADSVKGRFTISRDNAKNTVYLQMNSLKPEESPVESCAADSYRRWGNLFTGNEYDSWGQGTQVTVSS”, the “polyreactivity (PSR sort gate)” value is “low polyreactivity”.

Turning to “QVQLVESGGGLVQAGGSLRLSCAASGLTFQENGMGGYRQAPGKERELVASITTIGGSTYYADSVKGRFTISRDNAKNTVYLQMKSLKPEDTAVYYCAALSPIYATYGHDYWGQGTQVTVSS”, the “polyreactivity (PSR sort gate)” value was “low polyreactivity”.

“QVQHVESGGGLVQAGGSLRLSCAASGFTFHRYAMGWYRQAAGKERELVARISRSAGSTYYADSVKGRFTISRDNAKNTVYLQMNSLKPEDTAVYYCAAAQRRYGRGYGYWGQGTQVTVSS”: the “polyreactivity (PSR sort gate)” value was “high polyreactivity”.

Take “QVQLEESGGGLVQAGGSLRLSCAASGSIFQQYAMGWYRQAPGKERELVAAISYSGGTTYYADSVKGRFTISRDNAKNTVYLQMNSLKPEDTAVDYCAAYYPSGSYDYYWGQGTQVTVSS”: the “polyreactivity (PSR sort gate)” value is recorded as “low polyreactivity”.

“QVQLVESGGGLLQAGGSLRLSCAASGSTFRGNALGWYRQAPGKVRELVAAINSSGGRTYYADSVKGRFTISRDNAKNTVYLQMNSLKPEDTAVNYCAARGRRTGDYDYWGQGTQVTVSS”: the “polyreactivity (PSR sort gate)” value is reported as “high polyreactivity”.

With “QVQLVESGGGLVQARGSLRLSSAATGLIILAYAMGWYRQAPGKERELVAAISTSGSTYYADSVKGRFTISRDNAKNTVYLQMNSLKPEDTAVYYCAAYYRWSVTYYDWGQGTQGTVSS”, the “polyreactivity (PSR sort gate)” value is “high polyreactivity”.

For the sequence “QVPLVESGGGLVQAGGSLRLSCAASGFTFTPYGMGWYRPAPGKERELVAAITWNGGRTYYADSVKGRFTISRDNAKNTVYLQMNSLKPEDTAVYYCAAVAWSWQKRGYWGQGTQVTVSS”, the “polyreactivity (PSR sort gate)” value is “high polyreactivity”.

In the case of “QVQLVESGGGLVQAGGSLPLSCAASGRIFYTYAMGWYRQAPGKERELVAAITYRGGSTYYADSVKGRFTISRDNAKNTVYLQMNILIPEDTAVYYCAARPGRGPDSRWRYKYDYWGQGTQVTVSS”, the “polyreactivity (PSR sort gate)” value was “high polyreactivity”.

As to “QVQLVESGGGLDQAGGSLRLSCAASGSTFSYNAKGWYRQAPGKERELVAAITYRGSSTYYADSVKGRFTSSRDNAKNTVDLQMNSLKPEDTAVYYCAVSYVRYRGSGLTAFNYWGQGTQVTVSS”, the “polyreactivity (PSR sort gate)” value is listed as “high polyreactivity”.

As for “QVQLVESGGGLVQAGGTLRLSCAASGRTFRNNAMGWYRQAPGKEWELVAAISLRGGSTYYADSVKGRFTISRDNAKNTVYLLMNSLKPEDTAVYYCATRSRGWIAPPWQGSDGYYYWGQGTQVTVSS”, the “polyreactivity (PSR sort gate)” value is “low polyreactivity”.

For the origin of these results see the nanobody polyreactivity screen of Harvey et al. (2022).
